Data from US20220348665A1.
Substitutions are numbered along the chain they refer to.

Columns and labels:
[1] = target: human IGF1R extracellular domain, recombinant, His tag at C-terminus (human) (UniProt P08069); experiment: SPR (Biacore T200), His-tagged human IGF1R ECD captured by anti-his antibody on CM4 chip, bivalent model
[2] = target: human IGF1R extracellular domain, recombinant, His tag at C-terminus (human) (UniProt P08069); experiment: ELISA on ECD of IGF1R, bispecific form
[3] = target: human IGF1R, endogenous, on the surface of breast cancer cell lines (MCF-7, JIMT-1, BT474) (human) (UniProt P08069); experiment: FACS on MCF-7 cells, antibody 10 ug/mL (2nd Ab only 2.86, not treated 1.88)
[4] = target: human IGF1R, endogenous, on the surface of breast cancer cell lines (MCF-7, JIMT-1, BT474) (human) (UniProt P08069); experiment: FACS on MCF-7 cells (2nd Ab only 2.92)

B1: F06 IgG (anti-IGF1R clone F06, full IgG1 form) (antibody, from a related filing, V domains shown)
VH: EVQLLESGGGLVQPGGSLRLSCAASGFTFSSYDMSWVRQAPGKGLEWVSAISYDNGNTYYADSVKGRFTISRDNSKNTLYLQMNSLRAEDTAVYYCAKGVLTTLMNWFDYWGQGTLVTVSS
VL: QSVLTQPPSASGTPGQRVTISCTGSSSNIGSNDVSWYQQLPGTAPKLLIYANSNRPSGVPDRFSGSKSGTSASLAISGLRSEDEADYYCGTWAGSLNGYVFGGGTKLTVL
Q: For B1, which Kd [1] is on record?
A: 478 nM

B2: Hu3A9-C04 (bispecific antibody form of 1564 affinity variant C04) (bispecific antibody, part only; not given: humanized 3A9 IgG carrier, linker, not shown: another chain or arm of the molecule; a dimerising Fc or GST; large carriers; small tags and cut ends)
scFv: QSVLTQPPSASGTPGQRVTISCTGSSSNIGSNDVSWYQQLPGTAPKLLIYANSNRPSGVSDRFSGSKSGTSASLAISGLRSEDEADYYCGAWEQWLNGYVFGCGTKLTVLGGGGSGGGGSGGGGSGGGGSEVQLLESGGGLVQPGGSLRLSCAASGFTFSSYDMSWVRQAPGKCLEWVSAISYDNGNTYYADSVKGRFTISRDNSKNTLYLQMNSLRAEDTAVYYCAKGVLTTLMNWFDYWGQGTLVTVSS
Q: Which EC50 [2] does the source give for B2 here?
A: 0.107 nM

Q: And the GeoMean, Internalization at 37° C. [3]?
A: 7.23

B3: hu3A9x1564_F06 (bispecific antibody: humanized 3A9 IgG with F06 scFv) (bispecific antibody, part only; not given: humanized 3A9 IgG carrier, linker, not shown: another chain or arm of the molecule; a dimerising Fc or GST; large carriers; small tags and cut ends)
scFv: B2 scFv with A91T, E93A, Q94G, W95S
Q: With B3 as the binder, how does the GeoMean, Internalization at 37° C. [3] read?
A: 19.8

B4: C04 (1564 affinity variant) in bispecific antibody form, backbone not stated (bispecific antibody, not shown: small tags and cut ends)
scFv: B2 scFv
Q: For B4, which GEOmean [4] is on record?
A: 3.88
